From PMC11959585, “Modular Nanoparticle Platform for Solution-Phase Optical Sensing of Protein–Protein Interactions” (ACS Applied Optical Materials, 2025)

Assays:
Details in all cases: both partners purified
[1] = target: T1, His-tagged PEX5 (110–230) (UniProt P50542 110-230); test: solution-phase LSPR peak shift of nanoparticles (UV–vis); kinetic: peak position scanned every 20–30 s for 25 min after manual addition of PEX14 to immobilised hPEX5 (PEX14:PEX5 10:1 for 1–113), exponential fit; ka and kd derived from kobs and KD; 20 mM sodium phosphate, 100 mM NaCl, 0.025 wt % Tween 20, pH 7.9
T1 construct: cytosolic peroxisomal targeting protein PEX5, stretch of the intrinsically disordered N-terminal domain, residues 110-230; His-tagged samples were made with the pETM10 vector; also called hPEX5 (110–230); source: E. coli BL21 (DE3), purified (Ni-NTA, SEC); not shown: His6, N-terminal, kept

[2] = target: T2, His-tagged PEX5 (1–113) (UniProt P50542 1-113); test: as above
T2 construct: cytosolic peroxisomal targeting protein PEX5, stretch of the intrinsically disordered N-terminal domain, residues 1-113; His-tagged samples were made with the pETM10 vector; also called hPEX5 (1–113); source: E. coli BL21 (DE3), purified (Ni-NTA, SEC); not shown: His6, N-terminal, kept

[3] = target: T2, His-tagged PEX5 (1–113); test: solution-phase LSPR peak shift of nanoparticles (UV–vis); binding curve near equilibrium: PEX14 (16–80) titrated onto hPEX5 construct (0.015 μM) immobilised on nanobiosensors (~0.025 nM); 20 mM sodium phosphate, 100 mM NaCl, 0.025 wt % Tween 20, pH 7.9; fit with the Hill–Waud equation

ka near the first inflection point [1]: 12400 M^–1 s^–1 | kd near the first inflection point [1]: 0.00212 s^–1 | koff [2]: 0.00262 s⁻¹ | kon [2]: 9060 M⁻¹ s⁻¹ | Kd [3]: 289 nM
B1: PEX14 (16–80) (domain or fragment, UniProt O75381 16-80, looked up)
chain: TPGSENVLPREPLIATAVKFLQNSRVRQSPLATRRAFLKKKGLTDEEIDMAFQQSGTAADEPSSL
notes: peroxisomal membrane-associated import protein PEX14, globular N-terminal domain, residues 16-80; also called globular N-terminal domain of PEX14; source: E. coli BL21 (DE3), purified (Ni-NTA, TEV cleavage, reverse Ni column, SEC); not shown: His6, N-terminal, cleaved
